± gives the uncertainty stated by the source.
Assay: amyloid nucleation score (Sup35N fusion, yeast selection) (log enrichment); library NNK3; higher = more nucleation; inactive = no reads after selection
Procedure, shortened: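 The nucleation score is the log enrichment of output over input reads, calculated with DiMSum and centred on the mode score of non-aggregating sequences. Sequences with under 100 input reads were excluded. Reads came from Illumina sequencing of plasmid inserts from psi-negative yeast expressing Sup35N fused to peptides of 20 random codons, induced 24 hours with 100 μM copper sulfate and grown 7 days at 30°C without adenine and uracil.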
Work on SYSLPMQKRCCIGIGEAGWN yielded an amyloid nucleation score of -0.354 ± 0.82.
SYSNDHAFVSRVAGCNIC showed an amyloid nucleation score of 1.53 ± 0.1.
Substance SYSSIVCLGIDYRQAFWCIR has an amyloid nucleation score of 1.8 ± 0.077.
With SYSVIMNHMKRWNPGDTSKW the amyloid nucleation score was “inactive”.
For SYTSFSHSPCTVLMKTWPPK, the amyloid nucleation score was “inactive”.
With SYWPVRSELQSVLLNSCGVR the amyloid nucleation score was “inactive”.
In the case of SYYPRIRRLGWECSWTPMLQ, the amyloid nucleation score is reported as “inactive”.
Substance SYYSRIRLLRRVRVSYYYVR has an amyloid nucleation score of 0.801 ± 0.22.
Substance SYYTISLRMSFTTYFCLKMS has an amyloid nucleation score of 0.665 ± 0.13.
For TACVFPLMFTTVPGFFFVVE, the amyloid nucleation score was “inactive”.
With TAFYSRYFWVNLICRRPSFK the amyloid nucleation score was “inactive”.
For TAPFVYLLWRGKCSKAHSRY, the amyloid nucleation score was “inactive”.
With TARDESSGV the amyloid nucleation score was “inactive”.
For TAVVKW, the amyloid nucleation score was “inactive”.
In the case of TCAPMTITFSCHNNLFKC, the amyloid nucleation score is reported as 2.65 ± 0.058.
In the case of TCECCLMMVEFRALCHRWEL, the amyloid nucleation score is reported as “inactive”.
In the case of TCLEVYGSDMFRTKIRNHDK, the amyloid nucleation score is reported as “inactive”.
TCNNMYCWV gave an amyloid nucleation score of 2.3 ± 0.075.
With TCSYNSGKYNFE the amyloid nucleation score was “inactive”.
In the case of TCTLEFLNY, the amyloid nucleation score is reported as “inactive”.
For TDHAWFWEQS, the amyloid nucleation score was “inactive”.
With TDIAPLAGGITSSDNIVRTK the amyloid nucleation score was “inactive”.
Substance TDKRSGVKLNLYFITNTIFA has an amyloid nucleation score of 2.17 ± 0.06.
For TDSYICGNMLHKRALKSTSM, the amyloid nucleation score was “inactive”.
With TEDHH the amyloid nucleation score was “inactive”.
For TEESIDVDCVILVTNCHFRC, the amyloid nucleation score was 0.804 ± 0.18.
With TEQNVSGCEGEGSYGYTRYA the amyloid nucleation score was “inactive”.
With TETASNSTRYSFL the amyloid nucleation score was “inactive”.
For TFCSTCGDLWGSDFKCGFRV, the amyloid nucleation score was “inactive”.
For TFCVQYESRFRFQESESLHM, the amyloid nucleation score was “inactive”.
With TFFIIIGYVLASGGALGLCR the amyloid nucleation score was “inactive”.
With TFFLYVKIRVALNIRVPGVR the amyloid nucleation score was “inactive”.
With TFFVLGCLINLLGMKWTGWV the amyloid nucleation score was “inactive”.
With TFGHWAMYVSCWDRVVCGVD the amyloid nucleation score was “inactive”.
For TFLCSENQAAMWGIRTGSLL, the amyloid nucleation score was “inactive”.
TFLRQGMNSDISYLVRFGGN showed an amyloid nucleation score of -0.057 ± 0.47.
With TFLWY the amyloid nucleation score was “inactive”.
With TFNSLVCQFIKPLHHLFATL the amyloid nucleation score was “inactive”.
In the case of TFNYYACTPIKFVWYLGTCP, the amyloid nucleation score is reported as 2.54 ± 0.072.
With TFQDGLLRSDWFIMTLFRRP the amyloid nucleation score was “inactive”.
With TFQRFQLGHIRFRQVFSWIC the amyloid nucleation score was -0.627 ± 1.4.
For TFRLAEQQSEFSDLK, the amyloid nucleation score was -0.335 ± 0.71.
Substance TFSFILRSNLLYENRSVDRA has an amyloid nucleation score of 1.57 ± 0.077.
For TFSVRLSYLSRNAICDERVL, the amyloid nucleation score was 0.33 ± 0.46.
With TGCPWIRTVNPVVPWVCEHR the amyloid nucleation score was “inactive”.
For TGCSSF, the amyloid nucleation score was “inactive”.
In the case of TGKLNNFFNTFRYFYLLADY, the amyloid nucleation score is reported as “inactive”.
In the case of TGLVMNKLHLMCDMYGIISL, the amyloid nucleation score is reported as “inactive”.
In the case of TGPFGINLRGR, the amyloid nucleation score is reported as “inactive”.
With TGTSSKYVGEVLHSLVVWFA the amyloid nucleation score was -0.575 ± 1.5.
With TGVDILIPFFSPSGT the amyloid nucleation score was “inactive”.
With TGYWRIFSCSCLIVCVRLSV the amyloid nucleation score was “inactive”.
With THGIMLGFEECLGVYTFMCG the amyloid nucleation score was “inactive”.
For THGNMCYEWIPKVPTIISVG, the amyloid nucleation score was “inactive”.
Substance THHRPWWYHSEVGVRCMNEV has an amyloid nucleation score of 0.049 ± 0.96.
With THLIIHCLCLFERVFITHVA the amyloid nucleation score was “inactive”.
For THVSSGYRYEEILWWHSRGW, the amyloid nucleation score was “inactive”.
In the case of TIAHYTVP, the amyloid nucleation score is reported as “inactive”.
With TICQADSRSSFQGLDCRRVR the amyloid nucleation score was -1.01 ± 2.5.
With TICYGD the amyloid nucleation score was “inactive”.
For TIESNCVDDLSIGGAGPNLR, the amyloid nucleation score was “inactive”.
With TIFGCRSSQCSMFVLVFDFY the amyloid nucleation score was 1.51 ± 0.12.
For TIFRSNDLRQYFWMA, the amyloid nucleation score was 1.63 ± 0.071.
In the case of TIHIHFVGHDVCNRVVGVHH, the amyloid nucleation score is reported as 1.24 ± 0.18.
With TIISCFREKIGLSRM the amyloid nucleation score was “inactive”.
For TKGKLLSKHLGFVRCRVHRS, the amyloid nucleation score was “inactive”.
For TKGLDILDGVCVGCLRCQVD, the amyloid nucleation score was “inactive”.
For TKLCQSLRHAQRGTRTTSFS, the amyloid nucleation score was “inactive”.
For TKLPNYFWGLKGYHLLALLR, the amyloid nucleation score was “inactive”.
For TKWRLTP, the amyloid nucleation score was “inactive”.
With TKYRPCYNIVYSMFED the amyloid nucleation score was “inactive”.
In the case of TLAPKYFYFFVKDVFGTSYC, the amyloid nucleation score is reported as 1.54 ± 0.093.
In the case of TLDHEWGFLSEKATVL, the amyloid nucleation score is reported as “inactive”.
With TLDVQGTCH the amyloid nucleation score was “inactive”.
For TLFVA, the amyloid nucleation score was “inactive”.
In the case of TLGRNCLVQRSCMGRSSECD, the amyloid nucleation score is reported as “inactive”.
With TLISYFEG the amyloid nucleation score was “inactive”.
In the case of TLLFFCLEQTFNWFIMIQ, the amyloid nucleation score is reported as “inactive”.
For TLLFY, the amyloid nucleation score was “inactive”.

Reference: the supplement of paper PMC12042874
